Assay results published in patent publication US20210253725A1 (BIONTECH, published 2021).
Residue numbers refer to the chain shown, from its start. Names may count otherwise. Blank lines part the entries; values can stand above or below the binder they belong to.

Columns and labels:
[1] = biological target: T1, CD27 expressed on the cell surface (HT1080_CD27 cells) (human, UniProt P26842 20-260); test: cell-based or functional assay
T1 sequence (looked up): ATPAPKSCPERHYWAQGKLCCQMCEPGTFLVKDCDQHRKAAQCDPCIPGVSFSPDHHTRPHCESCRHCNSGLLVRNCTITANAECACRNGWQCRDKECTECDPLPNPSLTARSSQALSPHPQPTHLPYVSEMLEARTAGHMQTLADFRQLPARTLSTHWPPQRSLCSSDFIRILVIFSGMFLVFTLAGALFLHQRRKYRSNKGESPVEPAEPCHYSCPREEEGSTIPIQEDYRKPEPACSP

[2] = biological target: T2, CD27 protein (His-tagged, Sino Biological Inc. 10039-H08B1) (human, UniProt P26842 20-192); test: ELISA on coated His-tagged CD27
T2 construct: bought; coated onto ELISA plates; also called human CD27; recombinant protein; not shown: His tag
T2 sequence (looked up): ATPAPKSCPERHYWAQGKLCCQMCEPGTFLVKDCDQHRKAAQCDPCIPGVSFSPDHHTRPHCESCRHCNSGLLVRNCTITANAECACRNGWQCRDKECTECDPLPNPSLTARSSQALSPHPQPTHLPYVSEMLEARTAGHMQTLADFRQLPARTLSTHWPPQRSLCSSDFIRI

[3] = biological target: T1, CD27 expressed on the cell surface …; test: cellular binding assay, HT1080_CD27 cells
Further: test concentration or dose not given here.

- IL-8, cross-linked by F(ab')2 fragment [abs. corr.] [1]: 1.08 abs. corr.
- IL-8 [abs. corr.] [1]: 0.405 abs. corr.
- ELISA [abs. corr.] [2]: 3.4 abs. corr.
- Cellular binding assay [RFU] [3]: 310 RFU
B1: P018.S.06.A.F01 (antibody, V domains shown)
VH: QSLEESGGRLVTPGTPLTLTCTASGFSLSSYYMTWVRQAPGEGLEWIGTISTAGNTYFASWAKGRFTISRTSTTVDLKMTSPTTEDTATYFCARDGAGDSNYYRNLWGQGTLVTVSS
VL: AYDMTQTPASVEAAVGGTVTIKCQASESIDRFLAWYQQKPGQPPKLLIVDASTLESGVPSRFSGSGSGTEFTLTISDLESDNAATYYCQQGYSISDIDNVFGGGTEVVVK
notes: V regions on human Ig constant parts; also called AB27_107

- IL-8, cross-linked by F(ab')2 fragment [abs. corr.] [1]: 1.41 abs. corr.
- IL-8 [abs. corr.] [1]: 0.444 abs. corr.
- ELISA [abs. corr.] [2]: 3.53 abs. corr.
- Cellular binding assay [RFU] [3]: 380 RFU
B2: P018.S.07.A.F03 (antibody, V domains shown)
VH: B1 VH with S30N, M33I, K63N
VL: B1 VL with A1D, Y2I, D3V, M4L, E27Q
notes: V regions on human Ig constant parts; also called AB27_127

- IL-8, cross-linked by F(ab')2 fragment [abs. corr.] [1]: 1.55 abs. corr.
- IL-8 [abs. corr.] [1]: 0.525 abs. corr.
- ELISA [abs. corr.] [2]: 3.35 abs. corr.
- Cellular binding assay [RFU] [3]: 354 RFU
B3: P018.S.06.A.E01 (antibody, V domains shown)
VH: B1 VH with A62V, A93T
VL: B1 VL with Y2I, S93A
notes: V regions on human Ig constant parts; also called AB27_104

- IL-8, cross-linked by F(ab')2 fragment [abs. corr.] [1]: 1.33 abs. corr.
- IL-8 [abs. corr.] [1]: 0.813 abs. corr.
- ELISA [abs. corr.] [2]: 3.35 abs. corr.
- Cellular binding assay [RFU] [3]: 332 RFU
B4: P018.S.05.A.E04 (antibody, V domains shown)
VH: QEQLEESGGDLVKPEGSLTLTCTASGFSFSSYWICWVRQAPGKGLEWIACIATHSGTDFYASWAKGRFTISKTSSTTVTLQMTSLTAADTATYFCARDPYGFNGDYFSLWGPGTLVTVSS
VL: ALVMTQTPASVSAAVGGTVTINCQASQSVYNSNYLSWYQQKPGQPPKLLIYKASTLASGVPSRFKGSGSGTQFTLTISGVESDDAATYYCAGYKSYTNDDNGFGGGTEVVVK
notes: V regions on human Ig constant parts; also called AB27_90

- IL-8, cross-linked by F(ab')2 fragment [abs. corr.] [1]: 1.48 abs. corr.
- IL-8 [abs. corr.] [1]: -0.061 abs. corr.
- ELISA [abs. corr.] [2]: 3.13 abs. corr.
- Cellular binding assay [RFU] [3]: 357 RFU
B5: P018.S.02.A.G03 (antibody, V domains shown)
VH: QSVEESGGRLVTPGTPLTLTCTVSGFSLSSYVMSWVRQAPGKGLEWIGYIDYGGTAYYASWAKGRFTISKTSTTVELKITSPTIEDTATYFCARGGYGGYILVTGLWGPGTLVTVSS
VL: DIVMTQTPASVSEPVGGTVTIKCQASQTIISYLSWYQQKPGQPPKLLIYGASTLASGVPSRFKGSGSVTEYTLTISDLESADAATYYCQTYYGGGPFGNGFGGGTEVVVK
notes: V regions on human Ig constant parts; also called AB27_38

- IL-8, cross-linked by F(ab')2 fragment [abs. corr.] [1]: 1.73 abs. corr.
- IL-8 [abs. corr.] [1]: 0.094 abs. corr.
- ELISA [abs. corr.] [2]: 3.24 abs. corr.
- Cellular binding assay [RFU] [3]: 294 RFU
B6: P018.S.02.A.F06 (antibody, V domains shown)
VH: B5 VH with A56P
VL: B5 VL with I2V, T28S, I30S, L33C, K39R, V68G
notes: V regions on human Ig constant parts; also called AB27_36

- IL-8, cross-linked by F(ab')2 fragment [abs. corr.] [1]: 1.4 abs. corr.
- IL-8 [abs. corr.] [1]: 0.274 abs. corr.
- ELISA [abs. corr.] [2]: 3.36 abs. corr.
- Cellular binding assay [RFU] [3]: 314 RFU
B7: P018.S.09.A.H04 (antibody, V domains shown)
VH: B5 VH with I50S, S60N, G98D, I101L
VL: B5 VL with T28S, I30S, S34A, G50S, P59S, V68G
notes: V regions on human Ig constant parts; also called AB27_161

- IL-8, cross-linked by F(ab')2 fragment [abs. corr.] [1]: 1.39 abs. corr.
- IL-8 [abs. corr.] [1]: 0.401 abs. corr.
- ELISA [abs. corr.] [2]: 3.36 abs. corr.
- Cellular binding assay [RFU] [3]: 294 RFU
B8: P018.S.03.A.H05 (antibody, V domains shown)
VH: QSLEESGGDLVKPGASLTLTCTASGFSFSDRHYMCWVRQAPGKGLEWIGSIYTGKDSIDYASWAKGRFTISKTSSTTVTLQMTSLTAADTATYFCARDLLYGSSSGYLHTWGPGTLVTVSS
VL: DIVMTQTPSSVSEPVGGTVTIKCQASHNIYSNLAWYQQKLGQPPKLLIYYASTLASGVPSRFKGSGSGTEYTLTISDLESDDAATYYCQSAYYGSIDITFGGGTEVVAQ
notes: V regions on human Ig constant parts; also called AB27_63

- IL-8, cross-linked by F(ab')2 fragment [abs. corr.] [1]: 1.58 abs. corr.
- IL-8 [abs. corr.] [1]: 0.424 abs. corr.
- ELISA [abs. corr.] [2]: 3.35 abs. corr.
- Cellular binding assay [RFU] [3]: 296 RFU
B9: P018.S.07.A.F04 (antibody, V domains shown)
VH: QSLEESGGRLVTPGTPLTLTCTVSGFSLSSHAMSWVRQAPGKGLEYIGIIDTDASASYASWAKGRFTISRTSTTVDLKITSPTTEDTATYFCARDGGYTDYSYYAMDLWGPGTLVTVSS
VL: DIVMTQTPASVEAAVGGTVTIKCQASETIYVNLAWYQQKPGQPPKLLIYRASTLASGVSSRFKGSGSGTEFTLTISDVKSVDAATYYCHQAYRRSDVGNIFGGGTEVVVK
notes: V regions on human Ig constant parts; also called AB27_128

- IL-8, cross-linked by F(ab')2 fragment [abs. corr.] [1]: 1.91 abs. corr.
- IL-8 [abs. corr.] [1]: 0.328 abs. corr.
- ELISA [abs. corr.] [2]: 3.58 abs. corr.
- Cellular binding assay [RFU] [3]: 352 RFU
B10: P018.S.08.A.H02 (antibody, V domains shown)
VH: QSLEESGGRLVTPGTPLTLTCTASGFSLSYYYMTWVRQAPGKGLEWIGITGGGGDTYYGTWAKGRFTISKTSTTVDLKMTSPTTEDTATYFCARGTDGAAHTGFALWGQGTLVTVSS
VL: DIVMTQTPASVEAAVGGTVTIKCQASEDISSRLSWYQQKPGQPPKLLIYLASTLASGVPSRFKGSGSGTQFTLTISDLESADAATYYCQSSSYGTSTIYGTFGGGTEVVVK
notes: V regions on human Ig constant parts; also called AB27_142
